± gives the standard deviation of the averaged measurements.
B1: library; a variant is named by its letters at N, in order (parent)
chain: GCUGUCACCGGAAUACCAGCAUCGUCUUGAUGCCCUUGGAAGUCCGGUCUGAUGAGUCCNNNNNGGACGAAACAGC

Tests used:
theophylline [1] = variants of: B1; test: FACS-Seq fitted mean relative fluorescence mCherry/BFP without ligand (log10 relative fluorescence); higher = higher reporter protein expression; conditions: HEK293T, ligand present: no
Description: (§1)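 Hammerhead (sTRSV) ribozyme switch libraries with a ligand aptamer grafted on stem I and a randomized N4-6 loop II, cloned into the 3' UTR of mCherry and transiently transfected into HEK293T cells; RNA-Seq 72 h post transfection with ligand added 1 h before transfection; RNA read count / plasmid DNA read count normalized to the non-cleaving sTRSVctl (x100), log10; sequences with >100 DNA reads. FACS-Seq: lentiviral library sorted into 6 bins after 48 h ligand, log-normal fit mean of mCherry/BFP scaled to controls. Printed sequences are partial switch sequences.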

theophylline [2] = variants of: B1; test: normalized RNA/DNA level with ligand (relative to sTRSVctl = 100) (log10 (% of sTRSVctl)); higher = less ribozyme self-cleavage, higher mRNA level; conditions: ligand concentration (+) RNA-Seq: 5 mM, HEK293T, reporter: mCherry (pCS4076), ligand present: yes
Description: as §1

theophylline [3] = variants of: B1; test: normalized RNA/DNA level without ligand (relative to sTRSVctl = 100) (log10 (% of sTRSVctl)); higher = less ribozyme self-cleavage, higher mRNA level; conditions: HEK293T, reporter: mCherry (pCS4076), ligand present: no
Description: as §1

theophylline [4] = variants of: B1; test: FACS-Seq fitted mean relative fluorescence mCherry/BFP with ligand (log10 relative fluorescence); ligand concentration (+) FACS-Seq: 1 mM; higher = higher reporter protein expression; conditions: HEK293T, ligand present: yes
Description: as §1

| Variant | FACS-Seq fitted mean (log10) (theophylline [1]) | normalized RNA/DNA level with ligand (log10) (theophylline [2]) | normalized RNA/DNA level without ligand (log10) (theophylline [3]) | FACS-Seq fitted mean (log10) (theophylline [4]) |
| --- | --- | --- | --- | --- |
| CACUU | 0.741 ± 0.014 | 2 ± 0.028 | 1.756 ± 0.0024 | 1.028 ± 0.0013 |
| CACUC | 1 ± 0.12 | 2 ± 0.11 | 1.98 ± 0.096 | 0.969 ± 0.1 |
| CACUA | 0.228 ± 0.023 | 1.99 ± 0.058 | 1.44 ± 0.063 | 0.437 ± 0.048 |
| GAAGG | 0.991 ± 0.26 | 1.87 ± 0.011 | 1.72 ± 0.12 | 0.957 ± 0.057 |
| GAAGA | 0.532 ± 0.0054 | 1.89 ± 0.051 | 1.46 ± 0.36 | 0.761 ± 0.092 |
| GAAGU | 0.25 ± 0.013 | 1.94 ± 0.12 | 1.68 ± 0.17 | 0.483 ± 0.031 |
| AAAAC | 0.834 ± 0.057 | 1.944 ± 0.014 | 1.77 ± 0.066 | 0.873 ± 0.075 |
| AAAAA | -0.362 ± 0.072 | 1.85 ± 0.075 | 1.11 ± 0.061 | 0.356 ± 0.066 |
| AAAAG | 0.487 ± 0.041 | 1.971 ± 0.00093 | 1.66 ± 0.028 | 0.638 ± 0.13 |
| AAAAU | 0.464 ± 0.031 | 2.02 ± 0.028 | 1.68 ± 0.028 | 0.572 ± 0.045 |
| CAGAC | 0.2 ± 0.032 | 2.04 ± 0.028 | 1.9 ± 0.086 | 0.0728 ± 0.14 |
| CAGAA | 0.0186 ± 0.078 | 1.95 ± 0.054 | 1.2 ± 0.22 | 0.681 ± 0.037 |
| CAGAU | 0.809 ± 0.1 | 2 ± 0.035 | 1.6 ± 0.25 | 1.05 ± 0.037 |
| UAAAA | 0.164 ± 0.019 | 1.99 ± 0.029 | 1.206 ± 0.0047 | 0.589 ± 0.038 |
| UAAAG | 0.272 ± 0.033 | 2.041 ± 0.007 | 1.84 ± 0.11 | 0.497 ± 0.037 |
| UAAAC | 0.86 ± 0.034 | 1.978 ± 0.013 | 1.91 ± 0.096 | 0.924 ± 0.042 |
| UAAAU | 0.912 ± 0.013 | 1.978 ± 0.0035 | 1.84 ± 0.13 | 0.9829 ± 0.0075 |
| GAGCU | 0.479 ± 0.21 | 1.96 ± 0.14 | 1.8 ± 0.11 | 0.5269 ± 0.0042 |

| Variant | FACS-Seq fitted mean (log10) (theophylline [1]) | normalized RNA/DNA level with ligand (log10) (theophylline [2]) | normalized RNA/DNA level without ligand (log10) (theophylline [3]) | FACS-Seq fitted mean (log10) (theophylline [4]) |
| --- | --- | --- | --- | --- |
| GAGCG | 0.793 ± 0.054 | 1.94 ± 0.066 | 1.79 ± 0.033 | 0.81 ± 0.05 |
| GAGCC | 0.935 ± 0.11 | 1.953 ± 0.015 | 1.849 ± 0.013 | 0.918 ± 0.019 |
| CAGGU | 0.996 ± 0.18 | 2 ± 0.03 | 1.96 ± 0.041 | 0.848 ± 0.048 |
| CAGGA | 0.706 ± 0.028 | 2.01 ± 0.082 | 1.62 ± 0.25 | 0.799 ± 0.045 |
| CAGGC | 0.86 ± 0.039 | 2.06 ± 0.046 | 1.95 ± 0.03 | 0.813 ± 0.041 |
| UAGGA | 0.042 ± 0.047 | 1.958 ± 0.0077 | 1.55 ± 0.063 | 0.302 ± 0.044 |
| CAAGC | 0.66 ± 0.031 | 1.96 ± 0.064 | 1.99 ± 0.079 | 0.543 ± 0.046 |
| CAAGU | 0.759 ± 0.043 | 1.976 ± 0.016 | 1.94 ± 0.067 | 0.761 ± 0.14 |
| CAAGA | 0.32 ± 0.031 | 1.97 ± 0.023 | 1.56 ± 0.15 | 0.3733 ± 0.0017 |
| UAGCU | 1.23 ± 0.19 | 2.01 ± 0.048 | 1.93 ± 0.068 | 1.14 ± 0.05 |
| UAGCG | 1.09 ± 0.18 | 1.94 ± 0.066 | 1.9 ± 0.019 | 1.08 ± 0.016 |
| UAGCA | 0.6175 ± 0.0054 | 1.95 ± 0.052 | 1.55 ± 0.091 | 0.757 ± 0.046 |
| AACUU | 1.01 ± 0.076 | 1.9847 ± 0.0011 | 1.89 ± 0.059 | 0.981 ± 0.015 |
| AACUA | 0.84 ± 0.078 | 2.01 ± 0.045 | 1.77 ± 0.053 | 1 ± 0.015 |
| AACUG | 0.814 ± 0.11 | 2 ± 0.12 | 1.8 ± 0.18 | 0.939 ± 0.032 |
| AACUC | 0.94 ± 0.044 | 2.01 ± 0.11 | 1.916 ± 0.016 | 0.924 ± 0.031 |
| GAACG | 1.01 ± 0.081 | 1.89 ± 0.14 | 1.793 ± 0.015 | 1.03 ± 0.028 |

Reference: the supplement of paper PMC6757056
